According to patent publication US20240254223A1 (NOVIMMUNE, published 2024):

Experiments:
[1] = target: T1, high affinity trimeric IL-2R (IL-2Rα, IL-2Rβ and IL-2Rγ) on HEK-Blue IL-2 cells (UniProt P01589 22-272; P14784 27-551; P31785 23-369); assay: cell-based or functional assay
T1 sequence (looked up) 1: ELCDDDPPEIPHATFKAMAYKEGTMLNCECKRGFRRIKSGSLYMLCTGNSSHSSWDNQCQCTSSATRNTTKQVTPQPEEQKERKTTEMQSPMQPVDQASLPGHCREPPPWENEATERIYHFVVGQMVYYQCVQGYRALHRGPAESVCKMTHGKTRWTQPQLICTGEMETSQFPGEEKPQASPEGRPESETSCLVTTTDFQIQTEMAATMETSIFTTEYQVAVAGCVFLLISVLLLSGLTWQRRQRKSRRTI
T1 sequence (looked up) 2: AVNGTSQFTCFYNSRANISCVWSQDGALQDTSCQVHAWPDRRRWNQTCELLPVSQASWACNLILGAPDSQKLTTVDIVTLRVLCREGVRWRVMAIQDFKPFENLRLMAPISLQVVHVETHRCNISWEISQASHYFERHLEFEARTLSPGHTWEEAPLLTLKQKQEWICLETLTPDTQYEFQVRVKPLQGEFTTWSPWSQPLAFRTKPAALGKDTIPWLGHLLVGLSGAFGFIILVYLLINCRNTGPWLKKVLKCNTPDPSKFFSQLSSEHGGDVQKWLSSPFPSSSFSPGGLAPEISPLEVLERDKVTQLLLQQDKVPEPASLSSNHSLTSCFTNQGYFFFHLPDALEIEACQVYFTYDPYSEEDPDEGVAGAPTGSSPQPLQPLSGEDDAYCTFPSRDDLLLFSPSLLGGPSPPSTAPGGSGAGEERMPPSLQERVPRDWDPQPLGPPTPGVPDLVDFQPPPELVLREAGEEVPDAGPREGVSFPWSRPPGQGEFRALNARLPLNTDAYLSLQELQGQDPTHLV
T1 sequence (looked up) 3: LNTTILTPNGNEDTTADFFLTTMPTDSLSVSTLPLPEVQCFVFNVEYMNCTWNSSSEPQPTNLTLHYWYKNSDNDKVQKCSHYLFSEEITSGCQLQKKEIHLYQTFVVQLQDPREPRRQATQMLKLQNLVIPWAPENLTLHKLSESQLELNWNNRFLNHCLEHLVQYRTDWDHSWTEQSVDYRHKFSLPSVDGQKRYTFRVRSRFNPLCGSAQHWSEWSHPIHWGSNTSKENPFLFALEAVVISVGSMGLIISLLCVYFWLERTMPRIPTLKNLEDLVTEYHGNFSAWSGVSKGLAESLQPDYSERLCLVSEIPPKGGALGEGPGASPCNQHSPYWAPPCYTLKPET

[2] = target: T2, low-moderate affinity dimeric IL-2R (IL-2Rβ and IL-2Rγ) on HEK-Blue CD122/CD132 cells (UniProt P14784 27-551; P31785 23-369, limits assumed); assay: cell-based or functional assay
T2 sequence (looked up) 1: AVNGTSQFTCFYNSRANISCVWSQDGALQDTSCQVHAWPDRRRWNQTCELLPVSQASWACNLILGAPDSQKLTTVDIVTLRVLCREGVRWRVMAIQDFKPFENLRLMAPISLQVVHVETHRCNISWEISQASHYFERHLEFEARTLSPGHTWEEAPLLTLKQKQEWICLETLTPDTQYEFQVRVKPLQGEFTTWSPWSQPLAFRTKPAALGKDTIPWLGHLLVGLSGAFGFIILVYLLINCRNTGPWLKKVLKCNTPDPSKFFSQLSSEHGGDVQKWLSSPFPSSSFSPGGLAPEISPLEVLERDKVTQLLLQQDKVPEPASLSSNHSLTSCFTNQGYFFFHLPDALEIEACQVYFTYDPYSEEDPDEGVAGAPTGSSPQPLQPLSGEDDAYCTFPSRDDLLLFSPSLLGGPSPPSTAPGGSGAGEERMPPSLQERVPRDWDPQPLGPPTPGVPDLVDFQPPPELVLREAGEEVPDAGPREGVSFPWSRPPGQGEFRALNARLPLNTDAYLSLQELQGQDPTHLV
T2 sequence (looked up) 2: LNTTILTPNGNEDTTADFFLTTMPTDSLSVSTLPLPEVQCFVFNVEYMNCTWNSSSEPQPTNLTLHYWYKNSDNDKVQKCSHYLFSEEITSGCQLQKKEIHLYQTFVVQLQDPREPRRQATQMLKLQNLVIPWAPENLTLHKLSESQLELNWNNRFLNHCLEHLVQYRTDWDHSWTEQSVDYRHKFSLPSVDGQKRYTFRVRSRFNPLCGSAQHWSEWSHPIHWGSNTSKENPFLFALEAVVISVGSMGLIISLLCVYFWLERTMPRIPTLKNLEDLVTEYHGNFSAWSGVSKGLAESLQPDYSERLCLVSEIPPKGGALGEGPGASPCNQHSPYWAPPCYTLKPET

[3] = target: T3, CD47 at the surface of Peak cells (human, UniProt Q08722 19-323); assay: flow cytometry, Peak cells, after MMP-9 treatment
T3 construct: whole, on cells; also called cell surface CD47
Description: Binding activity of antibody-cytokine/receptor fusions before and after cleavage was also evaluated by flow cytometry. Peak cells derived from HEK 293 which are human cells expressing CD47 were used to evaluate masking efficacy and binding recovery to CD47 by flow cytometry. Peak cells were diluted in cold FACS buffer (PBS, 2% BSA) to 1.2×10⁶ cells/mL. 3×10⁵ cells/well were added in a 96 well V-bottom plate. The plate was then centrifugated for 5 min at 1300 rpm, 4° C. Supernatants were removed and cells were washed twice using FACS buffer. A serial dilution of antibody-cytokine/receptor fusions previously digested with MMP-9 or not digested as described above was prepared in FACS buffer. An irrelevant antibody was included. Then, 150 μL of each diluted antibody were added in corresponding well and incubated for 30 min at 4° C. Cells were washed twice with FACS buffer and 100 μL of a mouse anti human Fc-PE conjugated secondary antibody were added and the plate was incubated for 20 min at 4° C. Cells were then washed twice with FACS buffer. Finally, 150 μL of SYTOX blue dead cell stain (ThermoFisher) diluted to 1/5000 in FACS buffer were added before detection by flow cytometry with Cytoflex (Beckman Coulter). Acquisition was performed with 10000 events for each well. Data were analyzed by FlowJo software.

[4] = target: T4, His-tagged human CD47 (human, UniProt Q08722 19-139, limits assumed); assay: BLI, His-CD47 on HIS1K sensor, after MMP-9 treatment
T4 construct: loaded on HIS1K biosensors at 2.5 µg/mL; also called target antigen; not shown: His tag
Description: The capacity of the masking domains to inhibit binding activity of the antibody was evaluated by Bio-Layer Interferometry (BLI). […] Binding experiments were performed to evaluate the masking efficiency and the binding recovery after cleavage of the masking domains. BLI was performed on an Octet RED96 system (Sartorius). His-tagged human CD47 was diluted at 2.5 μg/mL in Kinetic Buffer (KB) (Sartorius) and loaded on HIS1K biosensors (anti-His tag antibody biosensors, Sartorius) for 300 seconds. Loaded biosensors were dipped into antibodies diluted at 15 μg/mL in KB for 300 seconds to monitor association. Then, biosensors were transferred in KB for dissociation for 60 seconds. Binding profiles were then analyzed with ForteBio Data Analysis software.

Row | EC50 after cleavage IL-2, HEK Blue IL-2 αβγ reporter assay [1] | EC50 after cleavage IL-2, HEK Blue IL-2 βγ reporter assay [2] | EC50 [3] | Binding after cleavage (BLI) [4] | Binder
1 | 0.02 nM | 0.01 nM | 0.5 nM | 1.7 nm | Construct No 770 after cleavage by MMP-9 (antibody, MMP-9 digest of m28; the sample also holds the released IL-2Rα, IL-2 C125S and IL-2Rβ; also called n770 after cleavage; not shown: remnant of CM1 and linker after MMP-9 cleavage) light: DIQMTQSPSSLSASVGDRVTITCNVDQVIANWLNWYQQKPGKAPKLLIYAASSLQSGVPSRFSGSGSGTDFTLTISSLQPEDFATYYCQQMHPRAPKQFGQGTKVEIKRTVAAPSVFIFPPSDEQLKSGTASVVCLLNNFYPREAKVQWKVDNALQSGNSQESVTEQDSKDSTYSLSSTLTLSKADYEKHKVYACEVTHQGLSSPVTKSFNRGEC heavy: not shown
2 | 0.02 nM | 0.01 nM | 0.7 nM | 1.6 nm | Construct No 651 after cleavage by MMP-9 (antibody, MMP-9 digest of m22; the sample also holds the released IL-2Rα, IL-2 and IL-2Rβ; also called n651 after cleavage; not shown: remnant of CM1 and linker after MMP-9 cleavage) light: DIQMTQSPSSLSASVGDRVTITCNVDQVIANWLNWYQQKPGKAPKLLIYAASSLQSGVPSRFSGSGSGTDFTLTISSLQPEDFATYYCQQMHPRAPKQFGQGTKVEIKRTVAAPSVFIFPPSDEQLKSGTASVVCLLNNFYPREAKVQWKVDNALQSGNSQESVTEQDSKDSTYSLSSTLTLSKADYEKHKVYACEVTHQGLSSPVTKSFNRGEC heavy: not shown
3 | 0.02 nM | 0.01 nM | 1 nM | 1.7 nm | Construct No 780 after cleavage by MMP-9 (antibody, MMP-9 digest of m29; the sample also holds the released IL-2Rα, IL-2 F42A and IL-2Rβ; also called n780 after cleavage; not shown: remnant of CM1 and linker after MMP-9 cleavage) light: DIQMTQSPSSLSASVGDRVTITCNVDQVIANWLNWYQQKPGKAPKLLIYAASSLQSGVPSRFSGSGSGTDFTLTISSLQPEDFATYYCQQMHPRAPKQFGQGTKVEIKRTVAAPSVFIFPPSDEQLKSGTASVVCLLNNFYPREAKVQWKVDNALQSGNSQESVTEQDSKDSTYSLSSTLTLSKADYEKHKVYACEVTHQGLSSPVTKSFNRGEC heavy: not shown
4 | 0.04 nM | 0.07 nM | 1.6 nM | 1.4 nm | Construct No 790 after cleavage by MMP-9 (antibody, MMP-9 digest of m30; the sample also holds the released IL-2Rα, IL-2 D20T and IL-2Rβ; also called n790 after cleavage; not shown: remnant of CM1 and linker after MMP-9 cleavage) light: DIQMTQSPSSLSASVGDRVTITCNVDQVIANWLNWYQQKPGKAPKLLIYAASSLQSGVPSRFSGSGSGTDFTLTISSLQPEDFATYYCQQMHPRAPKQFGQGTKVEIKRTVAAPSVFIFPPSDEQLKSGTASVVCLLNNFYPREAKVQWKVDNALQSGNSQESVTEQDSKDSTYSLSSTLTLSKADYEKHKVYACEVTHQGLSSPVTKSFNRGEC heavy: not shown
5 | 0.01 nM | 0.03 nM | 1.3 nM | 1.3 nm | Construct No 870 after cleavage by MMP-9 (antibody, MMP-9 digest of m33; the sample also holds the released IL-2Rγ, IL-2 and IL-2Rα; also called n870 after cleavage; not shown: remnant of CM1 and linker after MMP-9 cleavage) light: DIQMTQSPSSLSASVGDRVTITCNVDQVIANWLNWYQQKPGKAPKLLIYAASSLQSGVPSRFSGSGSGTDFTLTISSLQPEDFATYYCQQMHPRAPKQFGQGTKVEIKRTVAAPSVFIFPPSDEQLKSGTASVVCLLNNFYPREAKVQWKVDNALQSGNSQESVTEQDSKDSTYSLSSTLTLSKADYEKHKVYACEVTHQGLSSPVTKSFNRGEC heavy: not shown
6 | 0.48 nM | 1.14 nM | 1.5 nM | 1.5 nm | Construct No 800 after cleavage by MMP-9 (antibody, MMP-9 digest of m31; the sample also holds the released IL-2Rα, IL-2 Q126T and IL-2Rβ; also called n800 after cleavage; not shown: remnant of CM1 and linker after MMP-9 cleavage) light: DIQMTQSPSSLSASVGDRVTITCNVDQVIANWLNWYQQKPGKAPKLLIYAASSLQSGVPSRFSGSGSGTDFTLTISSLQPEDFATYYCQQMHPRAPKQFGQGTKVEIKRTVAAPSVFIFPPSDEQLKSGTASVVCLLNNFYPREAKVQWKVDNALQSGNSQESVTEQDSKDSTYSLSSTLTLSKADYEKHKVYACEVTHQGLSSPVTKSFNRGEC heavy: not shown
